From patent US20250051465A1 (published 2025) come the findings set out here.

The target of test [1] is T1, human LEPR CRH1-Ig (D2,D3)-MMH (human, UniProt P48357 230-427, limits assumed).
T1 construct: domain: CRH1-Ig (D2,D3); Transiently expressed, captured from supernatant on anti-myc beads
Briefly: Luminex, myc-captured LEPR domain.

For test [2], the target named is T2, human LEPR CRH1 (D1,D2)-MMH (human, UniProt P48357 22-339, limits assumed).
T2 construct: domain: CRH1 (D1,D2); Transiently expressed, captured from supernatant on anti-myc beads
Kind of test: Luminex, myc-captured LEPR domain.

The target of a further test is T3, human LEPR Ig (D3)-MMH (human, UniProt P48357 340-427, limits assumed).
T3 construct: domain: Ig (D3); Transiently expressed, captured from supernatant on anti-myc beads
T3 sequence (P48357 other isoform, or with tags, fused parts or gaps limits assumed): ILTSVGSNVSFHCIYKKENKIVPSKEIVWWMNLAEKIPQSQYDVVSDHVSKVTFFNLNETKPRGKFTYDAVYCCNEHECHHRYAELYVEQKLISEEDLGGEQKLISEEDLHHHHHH
Kind of test: Luminex, myc-captured LEPR domain.

The target in another test is T4, human LEPR CRH1 (D1)-MMH (human, UniProt P48357 22-229, limits assumed).
T4 construct: domain: CRH1 (D1); Transiently expressed, captured from supernatant on anti-myc beads
Kind of test: Luminex, myc-captured LEPR domain.

A further test concerns the target T5, human LEPR FNIII-MMH (human, UniProt P48357 636-839, limits assumed).
T5 construct: domain: FNIII; Transiently expressed, captured from supernatant on anti-myc beads
Briefly: Luminex, myc-captured LEPR domain.

The next test deals with T6, human LEPR CRH2-MMH (human, UniProt P48357 428-634, limits assumed).
T6 construct: domain: CRH2; Transiently expressed, captured from supernatant on anti-myc beads
T6 sequence (P48357 other isoform, or with tags, fused parts or gaps limits assumed): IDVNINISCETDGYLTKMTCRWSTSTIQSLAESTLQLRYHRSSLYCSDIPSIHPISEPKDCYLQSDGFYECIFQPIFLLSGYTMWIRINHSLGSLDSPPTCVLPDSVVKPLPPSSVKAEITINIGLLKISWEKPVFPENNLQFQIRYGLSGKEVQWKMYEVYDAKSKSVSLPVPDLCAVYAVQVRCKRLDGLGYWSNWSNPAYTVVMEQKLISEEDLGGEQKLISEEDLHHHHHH
Briefly: Luminex, myc-captured LEPR domain.

Test [3] deals with T7, human LEPR Ig-CRH2-FNIII-MMH (human, UniProt P48357 330-839, limits assumed).
T7 construct: domain: Ig-CRH2-FNIII; Transiently expressed, captured from supernatant on anti-myc beads
T7 sequence (P48357 other isoform, or with tags, fused parts or gaps limits assumed): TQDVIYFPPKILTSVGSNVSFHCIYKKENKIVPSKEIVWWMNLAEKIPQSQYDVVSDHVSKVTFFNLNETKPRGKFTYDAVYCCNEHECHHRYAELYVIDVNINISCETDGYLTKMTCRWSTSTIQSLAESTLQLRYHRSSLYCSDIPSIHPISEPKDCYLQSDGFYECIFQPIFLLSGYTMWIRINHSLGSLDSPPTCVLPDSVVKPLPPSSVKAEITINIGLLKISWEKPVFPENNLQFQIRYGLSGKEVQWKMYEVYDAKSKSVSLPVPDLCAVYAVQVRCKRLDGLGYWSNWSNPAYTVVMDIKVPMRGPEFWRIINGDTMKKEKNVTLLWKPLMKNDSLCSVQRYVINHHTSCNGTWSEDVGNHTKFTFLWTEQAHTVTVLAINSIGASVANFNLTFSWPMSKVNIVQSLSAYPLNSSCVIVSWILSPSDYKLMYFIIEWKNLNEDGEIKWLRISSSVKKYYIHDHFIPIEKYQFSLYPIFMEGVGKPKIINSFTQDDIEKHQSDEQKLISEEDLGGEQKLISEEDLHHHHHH
Briefly: Luminex, myc-captured LEPR domain.

Test [4] has as its target T8, preformed complex of hLEPR-MMH and human Leptin (human, UniProt P41159 22-167).
T8 construct: also called hLEPR-MMH: human Leptin complex; Leptn;LEPR
Briefly: SPR, mAb over preformed hLEPR-MMH:Leptin complex, 25C. Here is the method: The entire study was performed in 10 mM HEPES pH 7.4, 150 mM NaCl, 3 mM EDTA, and 0.05% v/v Surfactant Tween-20 (HBS-ET running buffer) at 25° C.
On the technique in general: In SPR one partner is held on a chip, and binding of the other changes the refractive index at the surface.

The target in test [5] is T9, full length human LEPR on cells (human, UniProt P48357 22-1165).
T9 construct: also called HEK293/Stat3-luc/hLEPR-FL; hLEPR-FL
T9 sequence: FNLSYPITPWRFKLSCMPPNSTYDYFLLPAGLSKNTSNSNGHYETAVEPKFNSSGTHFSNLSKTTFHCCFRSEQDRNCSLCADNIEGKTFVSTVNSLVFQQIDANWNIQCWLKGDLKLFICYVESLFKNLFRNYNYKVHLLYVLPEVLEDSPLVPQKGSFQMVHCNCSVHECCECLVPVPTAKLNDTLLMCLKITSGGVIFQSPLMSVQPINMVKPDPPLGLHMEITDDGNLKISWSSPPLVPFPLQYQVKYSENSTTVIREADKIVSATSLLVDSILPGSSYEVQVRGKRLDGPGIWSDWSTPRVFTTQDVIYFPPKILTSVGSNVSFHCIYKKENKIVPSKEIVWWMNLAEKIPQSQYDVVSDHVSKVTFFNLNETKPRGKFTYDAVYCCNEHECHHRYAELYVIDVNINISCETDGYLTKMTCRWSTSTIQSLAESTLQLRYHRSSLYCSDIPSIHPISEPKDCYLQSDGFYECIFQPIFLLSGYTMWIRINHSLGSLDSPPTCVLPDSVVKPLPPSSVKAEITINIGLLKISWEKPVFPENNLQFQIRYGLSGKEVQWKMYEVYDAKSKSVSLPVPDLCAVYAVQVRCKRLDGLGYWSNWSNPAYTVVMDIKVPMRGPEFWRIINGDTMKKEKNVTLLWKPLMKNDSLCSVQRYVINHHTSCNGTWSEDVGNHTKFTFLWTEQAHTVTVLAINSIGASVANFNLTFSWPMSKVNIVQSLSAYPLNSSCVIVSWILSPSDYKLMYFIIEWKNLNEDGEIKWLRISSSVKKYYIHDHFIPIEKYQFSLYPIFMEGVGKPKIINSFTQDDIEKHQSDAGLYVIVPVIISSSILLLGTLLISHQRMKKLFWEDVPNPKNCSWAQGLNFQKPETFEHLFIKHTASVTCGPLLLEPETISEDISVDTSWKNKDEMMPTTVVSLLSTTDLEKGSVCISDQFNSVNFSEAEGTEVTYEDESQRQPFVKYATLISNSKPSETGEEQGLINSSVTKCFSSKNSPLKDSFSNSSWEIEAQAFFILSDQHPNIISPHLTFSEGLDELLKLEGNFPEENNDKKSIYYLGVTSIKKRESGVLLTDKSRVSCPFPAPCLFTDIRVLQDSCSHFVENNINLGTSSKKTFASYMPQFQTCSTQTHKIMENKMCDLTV
Briefly: FACS, HEK293/Stat3-luc/hLEPR-FL, 70 nM Ab. A general note: Flow cytometry measures light scatter and fluorescence of single cells or particles in a stream.

For test [6], the target named is extracellular domain of Macaca fascicularis LEPR fused with the transmembrane and cytosolic domains of human … (Macaca fascicularis; human, UniProt P48357 840-1165). Kind of test: cell-based or functional assay.

T5 sequence (P48357 other isoform, or with tags, fused parts or gaps limits assumed): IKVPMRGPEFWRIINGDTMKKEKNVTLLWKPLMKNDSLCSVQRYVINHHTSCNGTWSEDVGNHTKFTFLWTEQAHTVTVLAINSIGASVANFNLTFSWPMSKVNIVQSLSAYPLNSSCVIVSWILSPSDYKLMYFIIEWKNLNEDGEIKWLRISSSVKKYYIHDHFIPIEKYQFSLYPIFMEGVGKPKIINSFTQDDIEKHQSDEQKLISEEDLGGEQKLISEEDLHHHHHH
T1 sequence (P48357 other isoform, or with tags, fused parts or gaps limits assumed): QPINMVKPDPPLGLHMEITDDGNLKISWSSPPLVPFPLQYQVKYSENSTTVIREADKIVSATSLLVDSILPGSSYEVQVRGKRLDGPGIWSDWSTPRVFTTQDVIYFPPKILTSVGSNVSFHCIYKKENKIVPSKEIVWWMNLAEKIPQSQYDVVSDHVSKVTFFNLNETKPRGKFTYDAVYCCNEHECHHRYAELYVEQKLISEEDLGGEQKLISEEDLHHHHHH
T8 sequence (P41159 22-167 limits assumed, one chain of several): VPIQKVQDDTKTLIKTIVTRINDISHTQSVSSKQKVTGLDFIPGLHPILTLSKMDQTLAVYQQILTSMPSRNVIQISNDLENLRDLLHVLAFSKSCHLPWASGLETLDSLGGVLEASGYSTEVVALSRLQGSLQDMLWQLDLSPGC

B1: H4H18449P2 (antibody, human IgG4, V domains shown)
VH: EVQLVESGGGLVQPGGSLRLSCVASGFTFNKYDMHWVRQTTGKGLEWVSGIDTDGDTYYPGSVKGRFTISRENAENSLYLQMNGLRVGDTAVYYCARWPWSGFYGAFDIWGQGTMVTVSS
VL: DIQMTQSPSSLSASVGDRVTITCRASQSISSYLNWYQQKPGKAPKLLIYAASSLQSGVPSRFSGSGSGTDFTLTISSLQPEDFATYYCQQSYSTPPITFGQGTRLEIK
notes: Fully human antibody with human IgG4 Fc (H4H prefix)
With B1, the MFI in test [1] is 42 MFI; in [2], 2930 MFI; with human LEPR Ig (D3)-MMH it was 24 MFI; with human LEPR CRH1 (D1)-MMH, 20 MFI; with human LEPR FNIII-MMH, 13 MFI; in the test with human LEPR CRH2-MMH, 15 MFI. Besides, the MFI in test [3] came to 43 MFI.

B2: H4H16679P2 (antibody, human IgG4, V domains shown)
VH: QVQLVESGGGVVQPGRSLRLSCTASGFTFSSYAMYWVRQAPGKGLEWVSVIYYDGSYKYYADSVKGRFTISRDNSKNTLYLQMDSLRAEDTAVYYCASYNWNYWYFDFWGRGTLVTVSS
VL: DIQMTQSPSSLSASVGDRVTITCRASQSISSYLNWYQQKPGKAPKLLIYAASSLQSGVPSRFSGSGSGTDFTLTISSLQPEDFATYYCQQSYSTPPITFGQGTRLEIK
notes: as for B1
On to B2, for which the “200 nM mAb Bound (RU)” value in test [4] was found to be 90 RU. Moreover, the MFI stood at 34 MFI in test [1]; 4390 MFI in [2]; 14 MFI with human LEPR Ig (D3)-MMH; 12 MFI in the test with human LEPR CRH1 (D1)-MMH; 10 MFI in the test with human LEPR FNIII-MMH; 33 MFI with human LEPR CRH2-MMH. The molecule further came in with an MFI in [3] of 42 MFI. For the same molecule, the “Binding Ratio” value in test [5] is 51 fold over unstained. Also, the “% Activation” value in test [6] is 80%. Besides, the “EC50, STAT3-Luc reporter, IMR-32/STAT3-Luc/MfLEPR cells” value (“EC50 … IMR-32/STAT3-Luc/MfLEPR cells” for short) in test [6] was determined as 249 pM.

B3: H4H17321P2 (antibody, human IgG4, V domains shown)
VH: QVQLVESGGGVVQPGRSLRLSCEASGFSSSDNAMYWVRQAPGKGLEWVSVIYHDGSYKYYEDSVKGRFTIARDNSKNTLYLQMNSLRAEDTAVYYCARYNWNHWYFDVWGRGTLVTVSS
VL: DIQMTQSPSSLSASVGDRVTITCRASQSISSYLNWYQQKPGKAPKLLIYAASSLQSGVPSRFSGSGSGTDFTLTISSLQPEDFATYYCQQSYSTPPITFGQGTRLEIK
notes: as for B1
On to B3, for which the MFI in test [1] came out at 15 MFI; in test [2] it was 2650 MFI; with human LEPR Ig (D3)-MMH it was 7 MFI; with human LEPR CRH1 (D1)-MMH it was 9 MFI; with human LEPR FNIII-MMH, 40 MFI; with human LEPR CRH2-MMH, 116 MFI. In test [3], this molecule registered an MFI of 14 MFI. In addition, in test [5], the “Binding Ratio” value is 46 fold over unstained. Further, the “% Activation” value in test [6] was found to be 78%. The “EC50 … IMR-32/STAT3-Luc/MfLEPR cells” value in [6] is 368 pM.

B4: H4H16650P2 (antibody, human IgG4, V domains shown)
VH: QVQLVESGGGVVQPGKSLRLSCVASGFTFSSDAMYWVRQAPGKGLEWVAVIYYDGNYQYYEDSVKGRFTISRDNSQNTLDLQMNSLRVDDTAVYFCARLNWDYWYLDLWGRGTLVTVSS
VL: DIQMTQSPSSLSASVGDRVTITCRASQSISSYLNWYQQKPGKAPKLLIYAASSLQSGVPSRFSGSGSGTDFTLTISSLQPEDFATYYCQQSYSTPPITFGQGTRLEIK
notes: as for B1
For B4, the “200 nM mAb Bound (RU)” value in test [4] worked out at 81 RU. The MFI in test [1] was determined as 74 MFI; in test [2], 4720 MFI; in the test with human LEPR Ig (D3)-MMH, 10 MFI; with human LEPR CRH1 (D1)-MMH, 8 MFI; with human LEPR FNIII-MMH it was 6 MFI; with human LEPR CRH2-MMH, 16 MFI. In addition, the MFI in [3] came out at 110 MFI. Besides, in [5], the “Binding Ratio” value was determined as 42 fold over unstained. Moreover, the “% Activation” value in test [6] amounted to 82%. The “EC50 … IMR-32/STAT3-Luc/MfLEPR cells” value in [6] was found to be 266 pM.

B5: H4H18438P2 (antibody, human IgG4, V domains shown)
VH: QVQLVESGGGVVQPGRSLRLSCAASGFSFNTYGMHWVRQAPGKGLEWVTIIWYDGSIKYYADSVKGRFTISRDNSKNTLYLQMNSLRAEDTAVYYCARGGYSGYLYFDYWGQGTLVTVSS
VL: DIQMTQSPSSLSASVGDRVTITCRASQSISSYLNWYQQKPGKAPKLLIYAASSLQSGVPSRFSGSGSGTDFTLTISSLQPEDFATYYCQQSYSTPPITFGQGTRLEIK
notes: as for B1
Consider B5, for which the MFI in test [1] amounted to 8880 MFI; in [2], 18900 MFI; with human LEPR Ig (D3)-MMH, 30 MFI; in the test with human LEPR CRH1 (D1)-MMH it was 13 MFI; in the test with human LEPR FNIII-MMH it was 25 MFI; with human LEPR CRH2-MMH it was 165 MFI. Moreover, the MFI in test [3] was 468 MFI.

B6: H4H18446P2 (antibody, human IgG4, V domains shown)
VH: EVQLVESGGGLVQPGGSLRLSCAASGFTFSNYGMTWVRQAPGKGLEWVSAITGGGGSTYYSNSVKGRFTISRDNSKNTVYLRMNSVRAEDTAVYYCAKYKWNFVDDWGQGTTVTVSS
VL: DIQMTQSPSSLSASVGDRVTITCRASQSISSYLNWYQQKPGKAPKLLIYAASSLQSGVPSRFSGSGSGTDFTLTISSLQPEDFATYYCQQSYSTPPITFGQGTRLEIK
notes: as for B1
With B6, the MFI in test [2] was 682 MFI; with human LEPR Ig (D3)-MMH, 25 MFI; in the test with human LEPR CRH1 (D1)-MMH it was 17 MFI; with human LEPR FNIII-MMH, 32 MFI; with human LEPR CRH2-MMH it was 65 MFI; in [3], 16900 MFI.

B7: H4H18445P2 (antibody, human IgG4, V domains shown)
VH: QVQLQESGPGLVKPSQTLSLTCTVSGGSISSGGDYWSWIRQLPGKGLEWIGYIYYSGSAYYNPSLKSRGTISIDTSKNQFSLKLTSVTAADTAVYFCVKLRFLEWFLGGWFGPWGQGTLVTVSS
VL: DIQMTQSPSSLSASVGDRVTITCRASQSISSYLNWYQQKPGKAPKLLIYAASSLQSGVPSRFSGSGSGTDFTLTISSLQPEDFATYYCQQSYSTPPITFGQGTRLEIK
notes: as for B1
For the molecule B7, the MFI in [1] stood at 40 MFI; in test [2], 30 MFI; in the test with human LEPR Ig (D3)-MMH, 19 MFI; with human LEPR CRH1 (D1)-MMH, 12 MFI; in the test with human LEPR FNIII-MMH, 230 MFI; with human LEPR CRH2-MMH, 17 MFI. The molecule further had an MFI in test [3] of 14500 MFI.

B8: H4H18417P2 (antibody, human IgG4, V domains shown)
VH: QVQLVESGGGVVQPGRSLRLSCAASGFTFSTYGMHWVRQAPGKGLEWVSVISYDESNKYYADSVKGRFTISRDNSKNALYLQMNSLRNEDTAVYYCARDRPFGLVTGWFDPWGQGTLVTVSS
VL: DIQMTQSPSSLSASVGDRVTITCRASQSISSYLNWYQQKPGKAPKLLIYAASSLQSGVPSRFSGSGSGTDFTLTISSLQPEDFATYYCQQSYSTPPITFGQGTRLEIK
notes: as for B1
On to B8, for which the MFI in [1] turned out to be 5500 MFI; in [2], 16000 MFI; with human LEPR Ig (D3)-MMH, 17 MFI; with human LEPR CRH1 (D1)-MMH it was 10 MFI; with human LEPR FNIII-MMH, 14 MFI; with human LEPR CRH2-MMH it was 39 MFI. In test [3], this molecule registered an MFI of 37 MFI.

B9: H4H17319P2 (antibody, human IgG4, V domains shown)
VH: QVQLVESGGSVVQPGRSLRLSCAASGFTFSTYAMYWVRQTPGKGLEWVAVLYSDGSNKYYIDSVKGRFTISRDTSTNTLYLQMSSLRADDSALYYCARLNWDYWYFDLWGRGTLVTVSS
VL: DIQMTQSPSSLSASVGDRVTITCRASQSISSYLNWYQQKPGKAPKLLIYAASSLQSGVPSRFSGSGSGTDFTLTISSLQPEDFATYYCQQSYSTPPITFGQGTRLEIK
notes: as for B1
Take B9: in test [4], the “200 nM mAb Bound (RU)” value is 92 RU. For the same molecule, the MFI is 14 MFI in test [1]; 1250 MFI in test [2]; 8 MFI with human LEPR Ig (D3)-MMH; 8 MFI in the test with human LEPR CRH1 (D1)-MMH; 20 MFI with human LEPR FNIII-MMH; 91 MFI with human LEPR CRH2-MMH. In addition, the MFI in [3] was 8 MFI. Also, in test [5], the “Binding Ratio” value stood at 47 fold over unstained. Further, in test [6], the “% Activation” value amounted to 76%. The “EC50 … IMR-32/STAT3-Luc/MfLEPR cells” value in [6] worked out at 365 pM.
